Earlier results, collected in publication PMC4101496.

Target: Asp14 (UniProt position 14, FGAHADDVEIG)
Experiment: kinetics
Conditions: WT enzyme under turnover; pH profiles of Zn2+-BshB and Co2+-BshB reported as identical

Question: With “N-acetylglucosamine-malate deacetylase (BshB) (Bacillus anthracis (per Table 1 accession; the review says BshB from both B. anthracis and B. cereus (BC1534) has been characterised and does not state which gave the pH profile))” as the substance, how does the pKa read?
Answer: 8.5
